Reference: patent publication US20260103522A1 (published 2026)
Changes are numbered by the printed parent chain.

T1: recombinant human FcεRIa extracellular region-mouse IgG2a Fc-6×His fusion protein (human, UniProt P12319 26-205)
T1 chain (part 1 of 2): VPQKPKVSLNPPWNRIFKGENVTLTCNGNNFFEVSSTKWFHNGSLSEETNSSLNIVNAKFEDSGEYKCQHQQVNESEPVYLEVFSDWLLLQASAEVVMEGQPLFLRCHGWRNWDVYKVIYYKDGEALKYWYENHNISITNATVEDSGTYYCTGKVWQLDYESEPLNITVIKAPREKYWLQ
T1 chain (part 2 of 2): HHHHHH

T2: recombinantly expressed human FcεRIa-Fc protein (human, UniProt P12319 26-205)
T2 chain: T1 chain (part 1 of 2)

B1: binding protein DB365 (designed binder)
chain: TKKCADSNPRGVSVFLFPPKPKDTLMISRTPEVTCVVVDLAPSKGTVKFNWYVDGVEVHNAKTKPREKQRNGTLTVVSVLTVLHQDWLNGKEYKCKVTHPHLPRALEKTISKAKGQPREPQVYTLPPSREEMTKNQVSLTCLVKGFYPSDIAVEWESNGQPENNYKTTPPVLDSDGSFFLYSKLTVDKSRWQQGNVFSCSVMHEALHNHYTQKSLSLSPGK
B2: Her2-specific binding protein DB872 (antibody)
heavy: EVQLVESGGGLVQPGGSLRLSCAASGFTFTDYTMDWVRQAPGKGLEWVADVNPNSGGSIYNQRFKGRFTLSVDRSKNTLYLQMNSLRAEDTAVYYCARNLGPSFYFDYWGQGTLVTVSSASTKGPSVFPLAPSSKSTSGGTAALGCLVKDYFPEPVTVSWNSGALTSGVHTFPAVLQSSGLYSLSSVVTVPSSSLGTQTYICNVNHKPSNTKVDKKVEPKSCDKTHTCPPCPADSNPRGVSVFLFPPKPKDTLMISRTPEVTCVVVDLAPSKGTVKFNWYVDGVEVHNAKTKPREKQRNGTLTVVSVLTVLHQDWLNGKEYKCKVTHPHLPRALEKTISKAKGQPREPQVYTLPPSREEMTKNQVSLTCLVKGFYPSDIAVEWESNGQPENNYKTTPPVLDSDGSFFLYSKLTVDKSRWQQGNVFSCSVMHEALHNHYTQKSLSLSPGK
light: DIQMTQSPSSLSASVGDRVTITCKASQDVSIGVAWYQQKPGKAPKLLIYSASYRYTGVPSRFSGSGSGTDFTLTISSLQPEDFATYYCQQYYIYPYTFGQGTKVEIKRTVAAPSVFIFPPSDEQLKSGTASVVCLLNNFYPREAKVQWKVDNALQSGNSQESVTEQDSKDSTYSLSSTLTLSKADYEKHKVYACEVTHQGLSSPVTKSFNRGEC
B3: binding protein DB-B64 (designed binder)
chain: CPAPELLGGPSVFLFPPKPKDTLMISRTPEVTCVVVDLAPSKGTVKFNWYVDGVEVHNAKTKPREKQRNGTLTVVSVLTVLHQDWLNGKEYKCKVTHPHLPRALEKTISKAKGQPREPQVYTLPPSREEMTKNQVSLTCLVKGFYPSDIAVEWESNGQPENNYKTTPPVLDSDGSFFLYSKLTVDKSRWQQGNVFSCSVMHEALHNHYTQKSLSLSPGK
B4: binding protein DB364 (designed binder)
chain: DFTPPTVKILQSSCDGGGHFPPTIQLLCLVSGYTPGTINITWLEDGQVMDVDLSTASTTQEGELASTQSELTLSQKHWLSDRTYTCQVTYQGHTFEDSTKKCADSNPRGVSVFLFPPKPKDTLMISRTPEVTCVVVDLAPSKGTVKFNWYVDGVEVHNAKTKPREKQRNGTLTVVSVLTVLHQDWLNGKEYKCKVTHPHLPRALEKTISKAKGQPREPQVYTLPPSREEMTKNQVSLTCLVKGFYPSDIAVEWESNGQPENNYKTTPPVLDSDGSFFLYSKLTVDKSRWQQGNVFSCSVMHEALHNHYTQKSLSLSPGK
B5: binding protein DB366 (designed binder)
chain: CADSNPRGVSVFLFPPKPKDTLMISRTPEVTCVVVDLAPSKGTVKFNWYVDGVEVHNAKTKPREKQRNGTLTVVSVLTVLHQDWLNGKEYKCKVTHPHLPRALEKTISKAKGQPREPQVYTLPPSREEMTKNQVSLTCLVKGFYPSDIAVEWESNGQPENNYKTTPPVLDSDGSFFLYSKLTVDKSRWQQGNVFSCSVMHEALHNHYTQKSLSLSPGK
B6: Her2-specific binding protein DB871 (antibody)
heavy: EVQLVESGGGLVQPGGSLRLSCAASGFTFTDYTMDWVRQAPGKGLEWVADVNPNSGGSIYNQRFKGRFTLSVDRSKNTLYLQMNSLRAEDTAVYYCARNLGPSFYFDYWGQGTLVTVSSASTKGPSVFPLAPSSKSTSGGTAALGCLVKDYFPEPVTVSWNSGALTSGVHTFPAVLQSSGLYSLSSVVTVPSSSLGTQTYICNVNHKPSNTKVDKKVEPKSCSRDFTPPTVKILQSSCDGGGHFPPTIQLLCLVSGYTPGTINITWLEDGQVMDVDLSTASTTQEGELASTQSELTLSQKHWLSDRTYTCQVTYQGHTFEDSTKKCADSNPRGVSVFLFPPKPKDTLMISRTPEVTCVVVDLAPSKGTVKFNWYVDGVEVHNAKTKPREKQRNGTLTVVSVLTVLHQDWLNGKEYKCKVTHPHLPRALEKTISKAKGQPREPQVYTLPPSREEMTKNQVSLTCLVKGFYPSDIAVEWESNGQPENNYKTTPPVLDSDGSFFLYSKLTVDKSRWQQGNVFSCSVMHEALHNHYTQKSLSLSPGK
light: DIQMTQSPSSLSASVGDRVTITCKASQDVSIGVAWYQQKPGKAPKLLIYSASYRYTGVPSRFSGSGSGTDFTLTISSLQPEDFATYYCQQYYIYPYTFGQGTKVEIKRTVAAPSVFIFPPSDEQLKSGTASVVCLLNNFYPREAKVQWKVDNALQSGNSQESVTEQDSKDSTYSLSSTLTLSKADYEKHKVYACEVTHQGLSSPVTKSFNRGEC
B7: binding protein DB177 (designed binder)
chain: CSRDFTPPTVKILQSSCDGGGHFPPTIQLLCLVSGYTPGTINITWLEDGQVMDVDLSTASTTQEGELASTQSELTLSQKHWLSDRTYTCQVTYQGHTFEDSTKKCADSNPRGVSVFLFPPKPKDTLMISRTPEVTCVVVDLAPSKGTVKFNWYVDGVEVHNAKTKPREKQRNGTLTVVSVLTVLHQDWLNGKEYKCKVTHPHLPRALEKTISKAKGQPREPQVYTLPPSREEMTKNQVSLTCLVKGFYPSDIAVEWESNGQPENNYKTTPPVLDSDGSFFLYSKLTVDKSRWQQGNVFSCSVMHEALHNHYTQKSLSLSPGK
B8: binding protein DB-B63 (designed binder)
chain: B5 chain with K45N, K93R

Target: T1, recombinant human FcεRIa extracellular …
Test: BLI

Row | Binder | Kd [nM]
1 | B1 | 0.719
2 | B2 | 1.81
3 | B3 | 4.68
4 | B4 | 1.78
5 | B5 | 1.68
6 | B6 | 1.91

Target: T2, recombinantly expressed human FcεRIa-Fc …
Test: blocking ELISA; blocking human IgE binding

Row | Binder | IC50 [nM]
7 | B2 | 77.4
8 | B5 | 59.7
9 | B6 | 61.2

Target: T2, recombinantly expressed human FcεRIa-Fc …
Test: blocking ELISA; blocking human IgE binding
Remark: another data set of the same source

Row | Binder | IC50 [nM]
10 | B1 | 12.8
11 | B7 | 18.4
12 | B4 | 15.7
13 | B5 | 16.2

Target: T2, recombinantly expressed human FcεRIa-Fc …
Test: blocking ELISA; blocking human IgE binding
Remark: another data set of the same source

Row | Binder | EC50 [nM]
14 | B3 | 24.5
15 | B5 | 8.94
16 | B8 | 6.52
